The target of the assay is T1, recombinant TGFβ (Homo sapiens (Human), UniProt P01137 279-390, Active TGFβ is a disulfide-linked homodimer ('TGFβ exists as a dimer'). One protomer is given; the assay form is two identical copies.).
T1 construct: also called TGF-beta; transforming growth factor beta
The experiment in a line: solution incubation of TGFβ (500 pg/mL) with a range of Fc:TβRII concentrations, 20 min at room temperature; remaining unbound TGFβ read on an anti-TGFβ1 ELISA plate. Here is the method: The Fc:TβRII recombinant protein (glycosylated) was tested in vitro using enzyme-linked immunosorbent assay (ELISA) to verify a selective and high binding affinity for TGFβ. A known quantity of recombinant TGFβ (500 pg/mL) was incubated with a range of concentrations of Fc:TβRII in aqueous solution at room temperature for 20 minutes. Aliquots from each sample were applied to an anti-TGFβ1 ELISA plate to measure the remaining unbound TGFβ.

This is an account of results in patent US20260042817A1 (PROVIDENCE HEALTH AND SERVICES OREGON, published 2026).

T1 sequence (P01137 279-390 limits assumed, form in doubt): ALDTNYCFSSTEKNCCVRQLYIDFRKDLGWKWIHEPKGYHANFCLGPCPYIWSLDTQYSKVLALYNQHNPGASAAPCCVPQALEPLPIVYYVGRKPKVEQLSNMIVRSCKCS

B1: Fc:TβRII recombinant protein (glycosylated) (Fc fusion)
chain: TIPPHVQKSVNNDMIVTDNNGAVKFPQLCKFCDVRFSTCDNQKSCMSNCSITSICEKPQEVCVAVWRKNDENITLETVCHDPKLPYHDFILEDAASPKCIMKEKKKPGETFFMCSCSSDECNDNIIFSEEYNTSNPDLLLVIFQSSSTMVRSVECPPCPAPPVAGPSVFLFPPKPKDTLMISRTPEVTCVVVDVSHEDPEVQFNWYVDGMEVHNAKTKPREEQFNSTFRVVSVLTVVHQDWLNGKEYKCKVSNKGLPAPIEKTISKTKGQPREPQVYTLPPSREEMTKNQVSLTCLVKGFYPSDIAVEWESNGQPENNYKTTPPMLDSDGSFFLYSKLTVDKSRWQQGNVFSCSVMHEALHNHYTQKSLSLSPGK
modifications: N-glycosylated (expressed in HEK 293T cells); sites not stated
notes: Purified on Protein A from HEK 293T supernatant; also called Fc:TβRII protein; unconjugated Fc:TβRII protein
The term IC50 denotes the concentration that inhibits the measured activity by half. B1: the IC50 came to 0.27 mg/L.
